Measurements as given in PMC3829478.

Biological target: Frizzled-7 receptor, endogenous (rat (endogenous in fetal rat brain growth cone particles and hippocampal neurons))

Wingless-type family member 3A (recombinant mouse Wnt3a) (from UniProt P27467 19-352) (ligand)
percent of hippocampal neurons with an identifiable Tau-1 containing axon (stage 3) after 20 h with 1.35 nM Wnt3a: > 55%
